According to US20170198026A1, “Compositions And Methods For Treating Tumors And Immune Based Inflammatory Diseases” (The Schepens Eye Research Institute, Inc., priority 2014, published 2017):
Entries after “also recorded” stand apart in the source; their conditions may differ.

T1: EMR2 (Homo sapiens, UniProt Q9UHX3)
T1 construct: endogenous in cells; host or cells: human peripheral blood monocytes (from Leukopac PBMC) cultured with TGFb2 and tetanus toxoid, giving tolerogenic APC
T1 sequence (Q9UHX3 24-823): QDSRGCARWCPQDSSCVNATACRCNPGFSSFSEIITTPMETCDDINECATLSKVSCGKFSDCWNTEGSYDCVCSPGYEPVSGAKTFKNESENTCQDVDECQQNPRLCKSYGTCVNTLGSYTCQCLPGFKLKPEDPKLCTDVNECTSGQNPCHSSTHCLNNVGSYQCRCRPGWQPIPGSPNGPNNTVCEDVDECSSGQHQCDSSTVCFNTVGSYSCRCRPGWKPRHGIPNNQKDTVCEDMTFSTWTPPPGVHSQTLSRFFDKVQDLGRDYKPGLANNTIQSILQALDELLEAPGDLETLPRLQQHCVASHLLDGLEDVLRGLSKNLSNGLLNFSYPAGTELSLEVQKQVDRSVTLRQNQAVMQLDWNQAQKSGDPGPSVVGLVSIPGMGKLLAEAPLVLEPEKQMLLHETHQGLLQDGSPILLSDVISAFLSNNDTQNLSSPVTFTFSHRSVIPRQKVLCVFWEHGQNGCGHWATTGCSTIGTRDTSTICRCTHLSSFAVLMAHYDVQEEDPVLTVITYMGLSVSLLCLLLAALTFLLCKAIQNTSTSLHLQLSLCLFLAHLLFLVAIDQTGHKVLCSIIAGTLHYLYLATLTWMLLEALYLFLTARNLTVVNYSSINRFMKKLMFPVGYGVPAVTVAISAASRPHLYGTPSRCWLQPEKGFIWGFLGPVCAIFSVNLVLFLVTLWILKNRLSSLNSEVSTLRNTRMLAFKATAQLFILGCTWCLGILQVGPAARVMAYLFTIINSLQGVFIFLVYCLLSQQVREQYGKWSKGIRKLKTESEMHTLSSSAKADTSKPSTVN

B1: TGFβ2: porcine TGFβ2 (R&D Systems), aqueous humor immunosuppressive factor used to generate tolerogenic APC (protein, UniProt P09858 303-435, looked up)
Transforming growth factor …: ALDAAYCFRNVQDNCCLRPLYIDFKRDLGWKWIHEPKGYNANFCAGACPYLWSSDTQHSRVLSLYNTINPEASASPCCVSQDLEPLTILYYIGKTPKIEQLSNMIVKSCKCSKTKLAAFARLYHSHSNLGSET

Experiments:
EMR2 = biological target: T1, EMR2; test: Blocking EMR2 ligand binding with soluble chondroitin sulfate in tolerogenic APC / lymphocyte co-culture; format: cell-based
Protocol: Monocytes were cultured as outlined above. Soluble chondroitin sulfate from shark cartilage (Sigma-Aldrich, St. Louis, Mo.) was used to bind to EMR and block signaling at a concentration of 1.5 mg/mL. CD25 and FoxP3 expression as well as intracellular cytokine functionality was tested.
To mediate cell interactions, EMR2 binds to chondroitin sulfate GAGs on the opposing cell. To block EMR2 signaling and the induction of T regulatory cells, we added soluble chondroitin sulfate to the cell culture. Saturating the culture with soluble chondroitin sulfate competitively binds up available EMR2 molecules and subsequently block signaling from the APC to the lymphocytes.
We treated APC with soluble chondroitin sulfate (1.5 mg/mL) in the same conditions listed above. By using a dose curve, we found 1.5 mg/mL was the ideal concentration for saturating EMR2 receptors. Post co-culture with lymphocytes, we repeated surface and intracellular staining of lymphocytes to check for differences in FoxP3+ cells (FIG. 9).

human APCs = test: Surface markers on human tolerogenic APC by flow cytometry; format: cell-based
Protocol: Isolated cells were plated on sterile petri dishes (BD Falcon, Franklin Lakes, N.J.) in serum-free culture medium, RPMI-1640 supplemented with Glutamax (Invitrogen, Carlsbad, Calif.), 1 mM sodium pyruvate, 0.1 mM non-essential amino acids, 100 U/mL Penicillin/Streptomycin, 10 mM HEPES (Invitrogen, Carlsbad, Calif.), Insulin/Transferrin/Selenium (ITS) (Invitrogen, Carlsbad, Calif.), and 0.1% BSA (Sigma-Aldrich, St. Louis, Mo.). Cells were cultured with or without 1 ng/mL porcine TGFβ2 (R&D Systems, Minneapolis, Minn.) for at least six hours. Cells were then pulsed with or without tetanus toxoid (TT) antigen (List Biological Laboratories, Campbell, Calif.) in serum-free media and incubated overnight in 37° C., 5% CO2.
APC were analyzed by flow cytometry to confirm the expression of myeloid and tolerogenic markers. CD14 (constitutive on monocyte-derived cells), Immunoglobulin-like transcript 3 (ILT3, cell surface immunoglobulin that co-ligates to APC stimulatory receptors to downregulate activation signals (Cella et al., 1997)), Programmed cell death 1 ligand 1 (PD-L1, well-known immunosuppressive ligand), and EMR2 were measured. Monoclonal antibodies to ILT3 and PD-L1 were purchased from eBioscience (San Diego, Calif.) and the monoclonal antibody to EMR2 was purchased from R&D Systems (Minneapolis, Minn.).

[1] = both TGFβ2 (1 ng/mL) and antigen (TT) compared to antigen or TGFβ2 alone

Molecule	CD25+ FoxP3+ cell populations (Treg production) (EMR2; 1.5 mg/mL soluble chondroitin sulfate, APC treated with antigen and TGFβ, CD4+ gated lymphocytes post co-culture)	ideal concentration for saturating EMR2 receptors (EMR2; dose curve, APC culture) [mg/mL]	EMR2 expression on APC (human APCs; TGFβ2 (1 ng/mL) and antigen (TT))	ILT3 expression on APC (human APCs; [1])	PD-L1 expression on APC (human APCs; [1])
chondroitin sulfate [soluble chondroitin sulfate]	no increase; also recorded: successfully blocks Treg production	1.5	–	–	–
B1	–	–	also upregulated	significantly (p≦0.05) upregulated	significantly (p≦0.05) upregulated
